# Experimental data from paper PMC11110527 (Chemical Science, 2024).
# Target: the molecule itself
# Experiment: negative-stain electron microscopy
protein,measurement,value
"AtPORB Y177F_H319A double mutant (enzyme, A. thaliana) QTAATSSPTVTKSVDGKKTLRKGNVVVTGASSGLGLATAKALAETGKWNVIMACRDFLKAERAAKSVGMPKDSYTVMHLDLASLDSVRQFVDNFRRTETPLDVLVCNAAVFFPTAKEPTYSAEGFELSVATNHLGHFLLARLLLDDLKKSDYPSKRLIIVGSITGNTNTLAGNVPPKANLGDLRGLAGGLNGLNSSAMIDGGDFDGAKAYKDSKVCNMLTMQEFHRRFHEETGVTFASLYPGCIASTGLFREAIPLFRALFPPFQKYITKGYVSETESGKRLAQVVSDPSLTKSGVYWSWNNASASFENQLSEEASDVEKARKVWEISEKLVGLA",binding result,binds
